Measured values from the supplement of paper PMC10567573.
± gives the standard deviation.

Assay: protein stability index of a GFP-peptide fusion (GPS, HEK-293T) (PSI 1-6); higher = more stable
[1] = treatment: DMSO, c terminus: a fixed tail appended
[2] = treatment: MLN4924 1 uM, 8 h, c terminus: a fixed tail appended
[3] = treatment: DMSO, c terminus: native
[4] = treatment: MLN4924 1 uM, 8 h, c terminus: native
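Note: 24-mer peptide tiles fused after GFP, lentivirally expressed, FACS-sorted into six equal bins by GFP/DsRed ratio, decoded by Illumina sequencing, PSI is the read-weighted mean bin number.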

ASPRRLSNVSSSGSINLLESPQLA [MAP2]
protein stability index [1]: 4.2 ± 0.2
protein stability index [2]: 4.12 ± 0.15

PCHPTVKNWRNFASKWGMSYDELC [EDARADD]
protein stability index [1]: 2.64 ± 0.28
protein stability index [2]: 2.54 ± 0.38

CFITLTTIGFGDYVALQTKGALQK [KCNK9]
protein stability index [1]: 2.97 ± 0.63
protein stability index [2]: 2.67 ± 0.59

METSASSSQPQDNSQVHRETEDVD [TMEM40]
protein stability index [1]: 5.54 ± 0.25
protein stability index [2]: 5.56 ± 0.32

LDLMKEWIAHSEKLPRKVLQHVSE [SPACA9]
protein stability index [1]: 3 ± 0.36
protein stability index [2]: 3.67 ± 0.47

CRRCYDWIHRPGCRCKNSNTVYCK [SPRY1]
protein stability index [1]: 2.82 ± 0.089
protein stability index [2]: 3.05 ± 0.13

TILPQEIQSRVQELHPESGEEAVT [ZNF263]
protein stability index [1]: 5.11 ± 0.25
protein stability index [2]: 5.33 ± 0.28

IRDLDVVVVSVAGAFRKGKSFILD [ATL3]
protein stability index [1]: 2.3 ± 0.64
protein stability index [2]: 2.34 ± 0.45

FTQSGPIVSRATGRCLEVEMSKDA [GALNT9]
protein stability index [1]: 2.71 ± 0.35
protein stability index [2]: 3.34 ± 0.54

VKELGTVMRMLGQTPTKEELDAII [TNNC2]
protein stability index [1]: 3.02 ± 0.29
protein stability index [2]: 3.04 ± 0.94

HCNVSNILHMNGSQSSTYRGTYEQ [ZNF396]
protein stability index [1]: 3.17 ± 0.21
protein stability index [2]: 3.24 ± 0.088

SPTGLSPYLRFGCLSCRLFYFKLT [CRY1]
protein stability index [1]: 1.84 ± 0.27
protein stability index [2]: 2.14 ± 0.43

PPLEDFEVLDGVEDAEGEEEEEEE [FKBP8]
protein stability index [1]: 5.69 ± 0.27
protein stability index [2]: 5.61 ± 0.34

QKEVLPSMRKIVATWMLEVCEEQK [CCND1]
protein stability index [1]: 3.01 ± 0.27
protein stability index [2]: 3 ± 0.3

VDISVPPTTDGQKPNKLQCCQNL [RAB11B]
protein stability index [3]: 4.77 ± 0.31
protein stability index [4]: 4.93 ± 0.091

YDPKENKWTRVASMSTRRLGVAVA [KLHL20]
protein stability index [1]: 2.29 ± 0.27
protein stability index [2]: 2.38 ± 0.28

LLIYTVKIRRFNKAKPEPDILEEE [TMEM192]
protein stability index [1]: 2.31 ± 0.32
protein stability index [2]: 2.29 ± 0.31

TFWKEDKAFWKEDNALWERDRNLL [CCDC70]
protein stability index [1]: 2.95 ± 0.12
protein stability index [2]: 3.2 ± 0.43

PVCSALLDPVLQAPGTGPAQTELL [FANCE]
protein stability index [1]: 4.2 ± 0.12
protein stability index [2]: 4.37 ± 0.12

TCSFNPGVIVANMTEWKHQRITKQ [GLT8D2]
protein stability index [1]: 3.12 ± 0.11
protein stability index [2]: 3.06 ± 0.15

SYLMLVTVMMWPLAVYHRLWDRAY [RETREG3]
protein stability index [1]: 3.62 ± 0.18
protein stability index [2]: 2.62 ± 0.6

TGNPKSEEPEVPDQEGLQRITGLS [SPNS1]
protein stability index [1]: 5.35 ± 0.26
protein stability index [2]: 5.41 ± 0.16

MQCLISNVEAQLSEIRCDLERQNQ [KRT36]
protein stability index [1]: 3.53 ± 0.11
protein stability index [2]: 3.32 ± 0.22

TQARQVMEREFNNLLALGTDRKLD [PPFIA4]
protein stability index [1]: 4.21 ± 0.52
protein stability index [2]: 4.12 ± 0.38

KEEEQSCEYETRLPGNHSTSQEIF [ZNF232]
protein stability index [1]: 5.02 ± 0.3
protein stability index [2]: 5 ± 0.13

VGSGGATSGKLLLEADELCDDGGD [ZBTB22]
protein stability index [1]: 5.56 ± 0.22
protein stability index [2]: 5.55 ± 0.22

QGDPKGEMAATPAGFAQLTHLLMG [HDAC6]
protein stability index [1]: 3.1 ± 0.16
protein stability index [2]: 3.06 ± 0.14

ELFIITQLQSMPSRELASMNLDIV [RHOBTB3]
protein stability index [1]: 2.31 ± 0.85
protein stability index [2]: 3.25 ± 0.55

TYVDKKRDLLGALKHWRRAMELRH [FEM1A]
protein stability index [1]: 2.28 ± 0.26
protein stability index [2]: 2.31 ± 0.11

QARAELTAQHQRRLAAIAQEKDQE [FBF1]
protein stability index [1]: 5.43 ± 0.23
protein stability index [2]: 5.2 ± 0.49

ISTSGQAGTSSHGCWAWPLAGLSV [PXN]
protein stability index [1]: 2.33 ± 0.47
protein stability index [2]: 2.25 ± 0.26

EELERRFEDEVKRLGWQQQAELQE [MTUS2]
protein stability index [1]: 5.01 ± 0.51
protein stability index [2]: 5.24 ± 0.35

LHYGLPVVVKLLHPPSHWPLIKAT [CTNNB1]
protein stability index [1]: 2.3 ± 0.45
protein stability index [2]: 2.46 ± 0.42

KMKGFGFWPAKVMQKEDNQVDVRF [ZMYND11]
protein stability index [1]: 3.11 ± 0.39
protein stability index [2]: 3.11 ± 0.34

MGCLGVAKEDGKADTKKRHTPRGH [SMOC2]
protein stability index [1]: 5.15 ± 0.17
protein stability index [2]: 5 ± 0.12

YVQWSLPFIVFGATGLTSGLLSLL [SLC22A15]
protein stability index [1]: 3.27 ± 0.45
protein stability index [2]: 2.94 ± 0.68

GPGGRRAGEPGHSPADYLRFQDLV [DYRK1B]
protein stability index [1]: 3.07 ± 0.35
protein stability index [2]: 3.27 ± 0.6

TFYVRFFLTYVPLLGLKAFLGLFF [FADS1]
protein stability index [1]: 2.93 ± 0.3
protein stability index [2]: 3.24 ± 0.29

ITNTDVDCLKACQEQIEAVLLNSL [CCND2]
protein stability index [1]: 2.73 ± 0.2
protein stability index [2]: 2.86 ± 0.39

DLAKLVDQQNPTLGETPENSNLEE [ZNF449]
protein stability index [1]: 5.47 ± 0.16
protein stability index [2]: 5.32 ± 0.24

TSDGYTALHLAARNGHLATVKLLV [RIPK4]
protein stability index [1]: 2.35 ± 0.57
protein stability index [2]: 2.25 ± 0.33

MTTPAGSGSGFGSVSWWGLSPALD [DNAAF3]
protein stability index [1]: 2.47 ± 0.29
protein stability index [2]: 2.75 ± 0.36

IRQEFDKLREFLRVEEQAILDAMA [TRIM35]
protein stability index [1]: 2.91 ± 0.31
protein stability index [2]: 2.97 ± 0.69

NQILMEKYLKLQDTCRTQLVWLVR [INTS3]
protein stability index [1]: 2.02 ± 0.39
protein stability index [2]: 2.38 ± 0.31

ACLVSCFQQLMVETCSCGYYLHPL [SCNN1D]
protein stability index [1]: 2.91 ± 0.17
protein stability index [2]: 3.21 ± 0.19

GGSAVCASRVKLQHLPAQEQWDRL [PLEKHN1]
protein stability index [1]: 3.08 ± 0.43
protein stability index [2]: 3.06 ± 0.29

TSPHFSTRHEGSFQVPVLCAVMNV [CD69]
protein stability index [1]: 2.81 ± 0.51
protein stability index [2]: 2.63 ± 0.59

EELPCTCPLCTSDRGSCVSTTEGI [RHOBTB3]
protein stability index [1]: 4.53 ± 0.22
protein stability index [2]: 4.62 ± 0.27

VLQIDNAKLAADDFRTKYETELSL [KRT36]
protein stability index [1]: 3.54 ± 0.37
protein stability index [2]: 3.49 ± 0.14

AEEWYKSKYADLSDAANRNHEALR [PRPH]
protein stability index [1]: 4.27 ± 0.21
protein stability index [2]: 4.43 ± 0.35

LADKELVHMISWAKKIPGMRGNA [ESR2]
protein stability index [3]: 2.95 ± 0.85
protein stability index [4]: 2.56 ± 0.7

ATLTTTSATSKLIHPDEDISLEER [ZNF207]
protein stability index [1]: 5.23 ± 0.064
protein stability index [2]: 5.35 ± 0.27

LSIINFFERLCLTWMFFFMMCVAE [PHTF1]
protein stability index [1]: 3.41 ± 1.2
protein stability index [2]: 2.81 ± 0.2

HCTGNEATLAACTSNGWGVTDCKH [LOXL2]
protein stability index [1]: 3.98 ± 0.24
protein stability index [2]: 4.21 ± 0.28

SVQVDGQARTQKLQGLIPGARYEV [TNXB]
protein stability index [1]: 2.6 ± 0.62
protein stability index [2]: 3.28 ± 0.26

PLSPAFFGEDGIFRHDRLRFRDFV [PBXIP1]
protein stability index [1]: 2.77 ± 0.16
protein stability index [2]: 2.91 ± 0.39

RQVVDILWSDPMAQEGCKANTIRG [PPEF2]
protein stability index [1]: 3.14 ± 0.31
protein stability index [2]: 3.55 ± 0.38

ISRKLGDMRNSATFKSFEDRVGTI [TPD52L2]
protein stability index [1]: 2.98 ± 0.22
protein stability index [2]: 3.07 ± 0.24

SHTLEERVVHWYFKLLDKNSSGDI [SMOC2]
protein stability index [1]: 2.44 ± 0.36
protein stability index [2]: 2.03 ± 0.21

LVDHVGSKTFLCIGSSVMAASLVT [SLC2A12]
protein stability index [1]: 3.06 ± 0.76
protein stability index [2]: 3.05 ± 0.57

AFEAARDLDACALVRGHRRRLLRR [ZSWIM9]
protein stability index [1]: 4.5 ± 0.2
protein stability index [2]: 4.45 ± 0.21

DLVDLFDGTSQSTGGSADLFGGFA [CLINT1]
protein stability index [1]: 2.69 ± 0.23
protein stability index [2]: 3.2 ± 0.32

APMDAPRYQHGIAVIGNFLYVVGG [KLHL13]
protein stability index [1]: 2.18 ± 0.36
protein stability index [2]: 2.25 ± 0.25

KSVQHVVLQALFYLLDRAVDSFET [PTPN9]
protein stability index [1]: 3.21 ± 0.38
protein stability index [2]: 2.58 ± 0.41

KNANRPLLDEIVPVYRRDCHEEVY [ACBD3]
protein stability index [1]: 3.88 ± 0.1
protein stability index [2]: 3.74 ± 0.15

ITDSYPVVKRREGPAGHSKGELAP [POLD4]
protein stability index [1]: 3.42 ± 0.47
protein stability index [2]: 4.21 ± 0.45

AGGFSIRNQKGEQVFRLAFRSGAL [MYORG]
protein stability index [1]: 1.77 ± 0.2
protein stability index [2]: 2.28 ± 0.39

GLLEAPGLQPVVFVLFLFAYLVTV [OR3A1]
protein stability index [1]: 2.53 ± 0.98
protein stability index [2]: 2.61 ± 0.8

EGSGHSTGEDSAFQEPDSPLPPAR [WEE1]
protein stability index [1]: 5.48 ± 0.14
protein stability index [2]: 5.52 ± 0.13

MRNLKASLENSLREVEARYALQME [KRT18]
protein stability index [1]: 3.22 ± 0.12
protein stability index [2]: 3.25 ± 0.38

GVVQALIVGYAFHFPHLLSPQIQR [TMEM175]
protein stability index [1]: 3.53 ± 0.28
protein stability index [2]: 3.25 ± 0.25

HPDIFLPSEICDRLVNEYVELVNA [ZER1]
protein stability index [1]: 2.56 ± 0.17
protein stability index [2]: 2.97 ± 0.35

VKEPCSLPMLSVDMENKENGSVGV [SAMD13]
protein stability index [1]: 5 ± 0.19
protein stability index [2]: 5.11 ± 0.21

AKQQKFIKAVTHQVKFGQQNPRQV [ZC3H15]
protein stability index [1]: 3.19 ± 0.22
protein stability index [2]: 3.4 ± 0.3

IQKNYECANFGDQGITMGCWDMYR [LOXL2]
protein stability index [1]: 2.06 ± 0.45
protein stability index [2]: 2.13 ± 0.25

MKCQSYCEPPSYRPMHHEDFKEDL [CDC25A]
protein stability index [1]: 3.77 ± 0.16
protein stability index [2]: 4.02 ± 0.23

YEENEGAGPYLLNGSYLELSSDRV [ADAMTSL2]
protein stability index [1]: 3.88 ± 0.33
protein stability index [2]: 4.07 ± 0.46

AGTGASRSSHSSDSGGSDVDLDPT [ELF3]
protein stability index [1]: 5.59 ± 0.23
protein stability index [2]: 5.51 ± 0.22

SGCDKEALLTGGGSENRNHRLLNM [RNF180]
protein stability index [1]: 3.58 ± 0.28
protein stability index [2]: 3.86 ± 0.29

MWLTPLHRAVASRSEEAVQVLIKH [ANKRD44]
protein stability index [1]: 2.29 ± 0.12
protein stability index [2]: 2.45 ± 0.18

VERAQQVAVQEQEIARREKELEAR [FLOT1]
protein stability index [1]: 5.27 ± 0.36
protein stability index [2]: 5.3 ± 0.18

LGDMQTAREGAGLVVASGVIYCLG [KLHL12]
protein stability index [1]: 2.47 ± 0.45
protein stability index [2]: 2.29 ± 0.8

AQSLPGPCAAAREGRLERRECGLA [IRX6]
protein stability index [1]: 4.42 ± 0.2
protein stability index [2]: 4.53 ± 0.38

PDLNILEDSAESRPWRAGVLAEGD [PSD2]
protein stability index [1]: 4.87 ± 0.13
protein stability index [2]: 4.99 ± 0.14

GFEYDGKINAWDLYYYMTQTEELK [NLN]
protein stability index [1]: 2.81 ± 0.035
protein stability index [2]: 2.49 ± 0.39

RHCPLPQATFWGLVTPRSWSCHT [SOAT2]
protein stability index [3]: 2.55 ± 0.64
protein stability index [4]: 2.44 ± 0.62

ELHIHRLRYLSSIWNILDLVVILL [PKD2L1]
protein stability index [1]: 2.28 ± 0.33
protein stability index [2]: 2.54 ± 0.28

SYYDPGRLICDFPFDGLLEERALL [VPS39]
protein stability index [1]: 2.4 ± 0.34
protein stability index [2]: 2.68 ± 0.29

RSPIIDVKNDRDRVGHKSIPMRNL [SERPINB5]
protein stability index [1]: 3.83 ± 0.13
protein stability index [2]: 4 ± 0.36
